The target in test [1] is T1, 4H2513-AA.
T1 chain: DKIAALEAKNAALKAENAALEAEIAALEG
Put plainly: two-hybrid library CCmax.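 Further: natural log of median RNA to DNA barcode read ratio; higher means stronger binding.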

The target of test [2] is T2, 4H369-AA.
T2 chain: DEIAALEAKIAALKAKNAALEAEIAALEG
The test can be described thus: two-hybrid library CCmax.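 Further: natural log of median RNA to DNA barcode read ratio; higher means stronger binding.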 The note with it: mean of both orientations.

The target in test [3] is T3, 4H55-AA.
T3 chain: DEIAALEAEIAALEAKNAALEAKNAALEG
The test can be described thus: two-hybrid library CCmax.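 Further: natural log of median RNA to DNA barcode read ratio; higher means stronger binding.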

Test [4] addresses T4, 4H3625-AA.
T4 chain: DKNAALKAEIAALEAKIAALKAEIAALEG
The test can be described thus: two-hybrid library CCmax.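 Further: natural log of median RNA to DNA barcode read ratio; higher means stronger binding.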 The note with it: mean of both orientations.

The target of test [5] is T5, 4H3922-AA.
T5 chain: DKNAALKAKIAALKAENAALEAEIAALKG
Put plainly: two-hybrid library CCmax. The following applies: mean of both orientations.

The target of test [6] is T6, 4H2726-AA.
T6 chain: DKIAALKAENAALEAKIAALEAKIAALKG
The test can be described thus: two-hybrid library CCmax. The note with it: mean of both orientations.

For test [7], the target named is T7, 4H3664-AA.
T7 chain: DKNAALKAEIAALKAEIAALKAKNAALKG
The test can be described thus: two-hybrid library CCmax. The following applies: mean of both orientations.

Test [8] concerns the target T8, 4H2608-AA.
T8 chain: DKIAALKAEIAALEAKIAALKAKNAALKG
The test can be described thus: two-hybrid library CCmax. The following applies: mean of both orientations.

Test [9] concerns the target T9, 4H481-AA.
T9 chain: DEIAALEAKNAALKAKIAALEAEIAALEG
Put plainly: two-hybrid library CCmax. The following applies: mean of both orientations.

The target in test [10] is T10, 4H2614-AA.
T10 chain: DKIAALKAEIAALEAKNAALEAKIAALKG
The test can be described thus: two-hybrid library CCmax. The note with it: mean of both orientations.

Test [11] deals with T11, 4H2536-AA.
T11 chain: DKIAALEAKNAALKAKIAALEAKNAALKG
The test can be described thus: two-hybrid library CCmax.

Test [12] has as its target T12, 4H662-AA.
T12 chain: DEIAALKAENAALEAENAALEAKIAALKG
Put plainly: two-hybrid library CCmax. The following applies: mean of both orientations.

Test [13] addresses T13, 4H327-AA.
T13 chain: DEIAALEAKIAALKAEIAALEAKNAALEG
Put plainly: two-hybrid library CCmax. The following applies: mean of both orientations.

In test [14] the target is T14, 4H2935-AA.
T14 chain: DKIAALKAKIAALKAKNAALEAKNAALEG
The test can be described thus: two-hybrid library CCmax. The note with it: mean of both orientations.

Test [15] concerns the target T15, 4H3605-AA.
T15 chain: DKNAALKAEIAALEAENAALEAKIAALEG
Put plainly: two-hybrid library CCmax. The note with it: mean of both orientations.

For test [16], the target named is T16, 4H4033-AA.
T16 chain: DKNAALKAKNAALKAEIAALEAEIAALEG
Put plainly: two-hybrid library CCmax. The following applies: mean of both orientations.

Test [17] has as its target T17, 4H968-bH.
T17 chain: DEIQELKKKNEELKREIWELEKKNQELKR
The test can be described thus: two-hybrid library CCNG1.

Test [18] deals with T18, 4H883-bH.
T18 chain: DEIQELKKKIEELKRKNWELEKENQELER
The test can be described thus: two-hybrid library CCNG1.

The target of test [19] is T19, 4H908-bH.
T19 chain: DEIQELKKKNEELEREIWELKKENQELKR
Put plainly: two-hybrid library CCNG1.

The target of test [20] is T20, 4H797-bH.
T20 chain: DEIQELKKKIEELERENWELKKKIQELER
Put plainly: two-hybrid library CCNG1.

Test [21] concerns the target T21, O16-bA.
T21 chain: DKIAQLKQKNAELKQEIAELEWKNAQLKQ
Put plainly: two-hybrid library CCNG1.

Test [22] has as its target T22, 4H953-bH.
T22 chain: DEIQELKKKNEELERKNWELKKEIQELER
Put plainly: two-hybrid library CCNG1.

Test [23] concerns the target T23, 4H967-bH.
T23 chain: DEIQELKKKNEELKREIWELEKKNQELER
Put plainly: two-hybrid library CCNG1.

The target in test [24] is T24, 4H855-bH.
T24 chain: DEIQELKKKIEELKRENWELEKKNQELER
The test can be described thus: two-hybrid library CCNG1.

For test [25], the target named is T25, 4H918-bH.
T25 chain: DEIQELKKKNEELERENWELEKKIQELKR
The test can be described thus: two-hybrid library CCNG1.

Regarding DKIAALEAKNAALKAENAALEAEIAALEG [4H2513-AA], the interaction score is -1.49 in test [1]; -1.79 in test [2]; -1.88 in test [3]; -2 in test [4]; -1.74 in test [5]; 0.913 in test [6]. Further, the interaction score is -1.85 in [7]; -1.07 in test [8]; -1.36 in test [9]; 0.461 in test [10]; -0.747 in [11]; 1.22 in [12]. Also, the interaction score in [13] is -1.74; in test [14] it was -2.01; in test [15], -1.25; in test [16], -1.46.

Turning to DEIQELKKKIEELERENWELKKKIQELER [4H797-bH], the interaction score was -0.0614 in test [17]; 0.639 in [18]; -0.915 in test [19]; -0.311 in [20]; -0.174 in test [21]; -0.0525 in test [22]. Besides, the results for the interaction score in test [23], in test [24] and in test [25] were 0.229, -1.17 and 0.24, respectively.
